Test results published in patent US20250340659A1 (PETMEDIX, published 2025).
Numbering of substitutions follows the chain as printed. Where two headings read alike, the source gives them in different places. Values belong to the molecule of their own block, whether it stands above or below them.

Experiments:
[1] = molecular target: T1, canine OX40L, full length membrane form, expressed on HEK293 cells (canine); assay: flow cytometry
T1 sequence: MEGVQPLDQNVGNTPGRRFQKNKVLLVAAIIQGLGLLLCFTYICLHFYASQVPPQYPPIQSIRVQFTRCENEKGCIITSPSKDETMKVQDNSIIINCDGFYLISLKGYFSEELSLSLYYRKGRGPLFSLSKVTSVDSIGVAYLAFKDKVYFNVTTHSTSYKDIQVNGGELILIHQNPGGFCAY

[2] = molecular target: T1, canine OX40L, full length membrane form, expressed on HEK293 cells (canine); assay: flow cytometry, OX40L HEK minus WT HEK
[3] = molecular target: T2, canine OX40L, full length membrane form, expressed on HEK293 cells (canine); assay: flow cytometry
T2 construct: also called OX40L expressing HEK; HEK OX40L cells
T2 chain: T1 sequence
How it was run: (§1)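 CHO supernatants at 1, 5 or 10 μg/ml in PBS/3% FBS incubated 30′ on ice with cells surface-expressing canine OX40L. Bound antibody detected with fluorescent anti-canine Fc secondary (1:1000, 30 min, dark) and measured by flow cytometry, with parental WT HEK signal subtracted where stated.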

[4] = molecular target: T3, recombinant canine OX40L ECD-TNCc-HIS protein (canine); assay: SPR Koff (kd1)
T3 construct: also called Trimeric OX40L probe (HIS tag); trimeric canine OX40L
T3 chain: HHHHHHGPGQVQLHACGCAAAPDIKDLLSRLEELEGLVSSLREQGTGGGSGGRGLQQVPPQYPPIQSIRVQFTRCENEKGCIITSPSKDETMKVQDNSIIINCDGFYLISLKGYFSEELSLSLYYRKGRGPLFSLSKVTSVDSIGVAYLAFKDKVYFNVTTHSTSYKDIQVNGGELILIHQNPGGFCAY
How it was run: (§2)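 Purified antigen amine-coupled at low density to a CM5 chip; candidate antibodies injected as analyte over a concentration range. Kinetic curves fitted with a bivalent analyte model to give functional affinity and dissociation rates.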

[5] = molecular target: T3, recombinant canine OX40L ECD-TNCc-HIS …; assay: SPR Koff (kd2)
How it was run: as §2

[6] = molecular target: T2, canine OX40L, full length membrane …; assay: cell-based or functional assay
[7] = molecular target: T3, recombinant canine OX40L ECD-TNCc-HIS …; assay: SPR KD1, bivalent analyte model
How it was run: as §2

[8] = molecular target: T2, canine OX40L, full length membrane …; assay: flow cytometry, OX40L HEK minus WT HEK
How it was run: as §1

[9] = molecular target: T1, canine OX40L, full length membrane form, expressed on HEK293 cells (canine); assay: cell-based or functional assay; remark: listed apart in the source

GEO mean OX40L expressing HEK [1]: 19600
GEO mean difference [2]: -4380
Molecule: neg CTR

GEO mean OX40L expressing HEK [3]: 1.28e+06
koff [4]: 0.00249 s⁻¹
koff [5]: 0.0022 s⁻¹
% Signal Inhibition Average [6]: 80.8%
% Signal Inhibition Rep1 [6]: 69.2%
% Signal Inhibition Rep2 [6]: 77.3%
% Signal Inhibition Rep3 [6]: 96.1%
Kd [7]: 17 nM
GEO mean difference [8]: 1.25e+06
B1: PMX043 (antibody)
heavy: EVQLVESGGDLVKPEGSLRLSCVVSGFTFSSYDMSWVRQAPGKGLQWVAYITNDGRYTSYTDAVKGRFTISRDNAKNTLYLQMNSLRTEDTAIYYCAKHGSSWSRGRFAMDYWGQGTSLFVSSASTTAPSVFPLAPSCGSTSGSTVALACLVSGYFPEPVTVSWNSGSLTSGVHTFPSVLQSSGLYSLSSMVTVPSSRWPSETFTCNVAHPASKTKVDKPVPKRENGRVPRPPDCPKCPAPESLGGPSVFIFPPKPKDTLLIARTPEVTCVVVDLGREDPEVQISWFVDGKQMQTAKTQPREEQFNGTYRVVSVLPIGHQDWLKGKQFTCKVNHIGLPSPIERTISKARGQAHQPSVYVLPPSREELSKNTVSLTCLIKDFFPPDIDVEWQSNGQQEPESKYRTTPPQLDEDGSYFLYSKLSVDKSRWQRGDTFICAVMHEALHNHYTQKSLSHSPGK
VL: SYVLTQLPSKNVTLNQPAHITCGGDSIGTKSVHWYQQKLGQAPVLIIFYDSSRPTGIPERFSGANSGNTATLTISGALAEDEADYYCQVWDSNASVFGGGTHLTVL
notes: also called PMX43

GEO mean OX40L expressing HEK [3]: 1.53e+06
koff [4]: 0.000171 s⁻¹
koff [5]: 0.0598 s⁻¹
% Signal Inhibition Average [6]: 75.1%
% Signal Inhibition Rep1 [6]: 75.7%
% Signal Inhibition Rep2 [6]: 66%
% Signal Inhibition Rep3 [6]: 83.6%
Kd [7]: 8.23 nM
GEO mean difference [8]: 1.5e+06
B2: PMX044 (antibody)
heavy: EVQLVESGGDPVKPEGSQRLSCVVSGFTFSSYDMSWVRQAPGKGLQWVAYITSDGRSTSYTDAVKGRFTISRDNARNTLFLQMNSLRTEDTAVYYCARHSSSWSRGRFGMDYWGHGTSLFVSSASTTAPSVFPLAPSCGSTSGSTVALACLVSGYFPEPVTVSWNSGSLTSGVHTFPSVLQSSGLYSLSSMVTVPSSRWPSETFTCNVAHPASKTKVDKPVPKRENGRVPRPPDCPKCPAPESLGGPSVFIFPPKPKDTLLIARTPEVTCVVVDLGREDPEVQISWFVDGKQMQTAKTQPREEQFNGTYRVVSVLPIGHQDWLKGKQFTCKVNHIGLPSPIERTISKARGQAHQPSVYVLPPSREELSKNTVSLTCLIKDFFPPDIDVEWQSNGQQEPESKYRTTPPQLDEDGSYFLYSKLSVDKSRWQRGDTFICAVMHEALHNHYTQKSLSHSPGK
VL: B1 VL with N15K, S26N, T29S, F48Y, N93S, S95G
notes: also called PMX44

GEO mean OX40L expressing HEK [3]: 1.25e+06
koff [4]: 0.00101 s⁻¹
koff [5]: 2.02e-05 s⁻¹
% Signal Inhibition Average [6]: 84.8%
% Signal Inhibition Rep1 [6]: 84.8%
% Signal Inhibition Rep2 [6]: 69.5%
% Signal Inhibition Rep3 [6]: 100%
Kd [7]: 40.4 nM
GEO mean difference [8]: 1.22e+06
B3: PMX046 (antibody)
heavy: B2 heavy with P11L, Q18L, S25A, S30N, S57F, R76K, F80Y, N84S, S104Y, Y112F
VL: B1 VL with N15K, S26N, T29S, V44I, F48Y, N93S
notes: also called PMX46

GEO mean OX40L expressing HEK [3]: 1.39e+06
koff [4]: 0.00191 s⁻¹
koff [5]: 0.00131 s⁻¹
% Signal Inhibition Average [6]: 67.1%
% Signal Inhibition Rep1 [6]: 67.6%
% Signal Inhibition Rep2 [6]: 65.1%
% Signal Inhibition Rep3 [6]: 68.7%
Kd [7]: 903 nM
GEO mean difference [8]: 1.36e+06
B4: PMX026 (antibody, V domains shown)
VH: EVHLVESGGDLVKPGGSLRLSCVASGFTFSSYHMSWVRQAPGKGLQWVAFINAGEISTNYADAVKGRFTISRDNAKNILYLQMNSLRAEDTAVYYCASGHIWIRPFDYWGQGTLVTVSS
VL: SYVLTQLPSMSVTLRQTARITCEGDSIGRKRVNWYQQKLGQVPVLIIYDDDSRPSGIPERFSGANSGNTATLTISGALAEDEAEYYCQVWDSSNNWVFGEGTQLTVL
notes: also called PMX26

GEO mean OX40L expressing HEK [1]: 7760
% Signal Inhibition Average [9]: -17.2%
% Signal Inhibition Rep1 [9]: -9.89%
% Signal Inhibition Rep2 [9]: -4.12%
% Signal Inhibition Rep3 [9]: -37.6%
GEO mean difference [2]: 4100
B5: PMX106 (antibody, V domains shown)
VH: EVQLVESGGDLVKPGGSLRLSCVASGFTFSSYHMSWVRQAPGKGLQWVAYINSGGSSTSYADAVKGRFTISRDNAKNTLYLQMNSLRAEDTAVYYCAGFIWTHFDYWGQGTLVTVSS
VL: DIVMTQTPPSLSVSPRETASISCKASQSLLHSDGNTYLDWYLQKPGQSPQLLIYLVSNRFTGVSDRFSGSGSGTDFTLRISRVEANDTGVYYCGQGTQLWTFGAGTKVELK
